The record followed here is patent US20120021995A1 (published 2012).

What is called Kd is a measure of binding affinity in units of concentration. The koff is a measure of how fast the partners let go of each other. What is called kon is the rate constant with which the complex forms.

Assay [1] has as its target T1, DR4 (TRAIL-R1) on cancer cells (human, UniProt O00220 24-468).
T1 sequence: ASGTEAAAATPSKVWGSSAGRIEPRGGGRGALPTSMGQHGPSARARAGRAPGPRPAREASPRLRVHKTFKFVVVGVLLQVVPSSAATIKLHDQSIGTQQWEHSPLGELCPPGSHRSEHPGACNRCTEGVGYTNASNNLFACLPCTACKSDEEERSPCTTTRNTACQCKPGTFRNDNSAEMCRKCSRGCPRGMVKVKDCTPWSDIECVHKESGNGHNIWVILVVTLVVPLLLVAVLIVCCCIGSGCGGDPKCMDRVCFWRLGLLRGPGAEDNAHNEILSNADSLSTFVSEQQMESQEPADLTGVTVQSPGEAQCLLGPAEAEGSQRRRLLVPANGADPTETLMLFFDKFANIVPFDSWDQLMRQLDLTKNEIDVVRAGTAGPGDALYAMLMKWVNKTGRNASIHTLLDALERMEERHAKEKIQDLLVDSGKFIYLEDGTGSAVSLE
Put plainly: cell-based or functional assay.

For assay [2], the target named is T1, DR4 (TRAIL-R1) on cancer cells. Put plainly: cell-based or functional assay. This is another data set of the same source.
Assay [3] deals with T2, recombinant human TRAIL R1 (DR4)/Fc chimera (human, UniProt O00220 24-239).
T2 construct: bought (R&D Systems); not shown: Fc of the bought chimera (R&D Systems)
T2 sequence: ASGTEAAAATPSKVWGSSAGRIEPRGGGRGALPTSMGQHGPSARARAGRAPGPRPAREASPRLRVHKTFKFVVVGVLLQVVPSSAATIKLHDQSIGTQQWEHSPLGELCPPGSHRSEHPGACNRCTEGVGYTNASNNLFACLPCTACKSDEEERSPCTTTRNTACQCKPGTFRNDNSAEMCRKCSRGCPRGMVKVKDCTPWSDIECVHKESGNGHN
Put plainly: SPR (Biacore), ATRIMER. The protocol: Immobilization of an anti-human IgG Fc antibody (Biacore) to the CM5 chip (Biacore) was performed using standard amine coupling chemistry and this surface was used to capture recombinant human DR4 or DR5 receptor Fc fusion protein (R&D Systems). ATRIMER™ dilutions (1-500 nM) were injected over the DR4 and DR5 receptor surface at 30 μl/min and kinetic constants were derived from the sensorgram data using the Biaevaluation software (version 3.1, Biacore). Data collection was 3 minutes for the association and 5 minutes for dissociation. The anti-human IgG surface was regenerated with a 30 s pulse of 3 M magnesium chloride. All sensorgrams were double-referenced against an activated and blocked flow-cell as well as buffer injections.
Clones were then sub-cloned into pANA19 for expression and purification as described above. Cell killing activity was measured as described above, and binding affinity was measured by Biacore.

Assay [4] deals with T1, DR4 (TRAIL-R1) on cancer cells. Kind of assay: cell-based or functional assay. This is another data set of the same source.
The target is the same in assay [5]. Kind of assay: cell-based or functional assay. This is another data set of the same source.

B1: 71p88P1A3 (designed binder)
chain: EPPTQKPKKIVNAKKDVVNTKMFEELKSRLDTLAQEVALLKEQQALQTVCLKGTKVHMKCFLAFTQTKTFHEASEDCISRGGTLSTPQTGSENDALYEYLRQSVGNEAEIWLGLNGYLAGTGWVDMTGARIAYKNWETEITAQPDGGRVLAWENCAVLSGAANGKWFDKRCRDQLPYICQFGIV
B1: in assay [1], the “ED50 ST486 (cell killing)” value turned out to be 170 nM. Also, in assay [2], the “Colo205 % killing (% of TRAIL activity)” value was -7%, the “H2122 % killing (% of TRAIL activity)” value was -3% and the “ST486 % killing (% of TRAIL activity)” value was 41%.

B2: 119p94P1F4 (designed binder)
chain: EPPTQKPKKIVNAKKDVVNTKMFEELKSRLDTLAQEVALLKEQQALQTVCLKGTKVHMKCFLAFTQTKTFHEASEDCISRGGTLSTPQTGSENDALYEYLRQSVGNEAEIWLGLNGWLEGVGWVDMTGARIAYKNWAAVTMEQPDGGWPFSNENCAVLSGAANGKWFDKRCRDQLPYICQFGIV
notes: ATRIMER from pANA19
In the case of B2, in assay [3], the Kd stood at 2.96 nM, the koff is 0.000892 s⁻¹ and the kon was determined as 125000 M⁻¹ s⁻¹. Further, the “ED50 (nM) ST486 (cell killing)” value in assay [4] came to 308 nM.

B3: 119p94P1C1 (designed binder)
chain: EPPTQKPKKIVNAKKDVVNTKMFEELKSRLDTLAQEVALLKEQQALQTVCLKGTKVHMKCFLAFTQTKTFHEASEDCISRGGTLSTPQTGSENDALYEYLRQSVGNEAEIWLGLNGWLEGVGWVDMTGARIAYKNWAISDERQPDGGWPFSNENCAVLSGAANGKWFDKRCRDQLPYICQFGIV
notes: ATRIMER from pANA19
Consider B3, for which, in assay [3], the Kd came out at 1.85 nM, the koff was 0.000571 s⁻¹ and the kon stood at 141000 M⁻¹ s⁻¹. Also, the “ED50 (nM) ST486 (cell killing)” value in assay [4] stood at 251 nM.

B4: 119p83P1H1 (designed binder)
chain: EPPTQKPKKIVNAKKDVVNTKMFEELKSRLDTLAQEVALLKEQQALQTVCLKGTKVHMKCFLAFTQTKTFHEASEDCISRGGTLSTPQTGSENDALYEYLRQSVGNEAEIWLGLNGWLEGVGWVDMTGARIAYKNWTQRHSGQPDGGWPFSNENCAVLSGAANGKWFDKRCRDQLPYICQFGIV
notes: ATRIMER from pANA19
For the molecule B4, in assay [3], the Kd came to 1.42 nM, the koff was 0.000329 s⁻¹ and the kon was 221000 M⁻¹ s⁻¹. Also, the “ED50 (nM) ST486 (cell killing)” value in assay [4] was determined as 13 nM.

B5: 119p94P1D8 (designed binder)
chain: EPPTQKPKKIVNAKKDVVNTKMFEELKSRLDTLAQEVALLKEQQALQTVCLKGTKVHMKCFLAFTQTKTFHEASEDCISRGGTLSTPQTGSENDALYEYLRQSVGNEAEIWLGLNGWLEGVGWVDMTGARIAYKNWGWMDSKQPDGGWPFSNENCAVLSGAANGKWFDKRCRDQLPYICQFGIV
notes: ATRIMER from pANA19
As for B5, in assay [3], the Kd amounted to 1.31 nM, the koff stood at 0.000542 s⁻¹ and the kon amounted to 400000 M⁻¹ s⁻¹. The “ED50 (nM) ST486 (cell killing)” value in assay [4] is 30.5 nM.

B6: 119p83P1H4 (designed binder)
chain: EPPTQKPKKIVNAKKDVVNTKMFEELKSRLDTLAQEVALLKEQQALQTVCLKGTKVHMKCFLAFTQTKTFHEASEDCISRGGTLSTPQTGSENDALYEYLRQSVGNEAEIWLGLNGWLEGVGWVDMTGARIAYKNWSKVRLEQPDGGWPFSNENCAVLSGAANGKWFDKRCRDQLPYICQFGIV
notes: ATRIMER from pANA19
Turning to B6, in assay [3], the Kd came to 0.16 nM, the koff worked out at 2.21e-05 s⁻¹ and the association rate constant (kon) is 138000 M⁻¹ s⁻¹. Also, the “ED50 (nM) ST486 (cell killing)” value in assay [4] was 0.13 nM.

B7: 119p94P1B4 (designed binder)
chain: EPPTQKPKKIVNAKKDVVNTKMFEELKSRLDTLAQEVALLKEQQALQTVCLKGTKVHMKCFLAFTQTKTFHEASEDCISRGGTLSTPQTGSENDALYEYLRQSVGNEAEIWLGLNGWLEGVGWVDMTGARIAYKNWAEVPFFQPDGGWPFSNENCAVLSGAANGKWFDKRCRDQLPYICQFGIV
notes: ATRIMER from pANA19
As for B7, in assay [3], the Kd stood at 2.82 nM, the koff was found to be 0.00052 s⁻¹ and the on-rate constant (kon) was 185000 M⁻¹ s⁻¹. Besides, the “ED50 (nM) ST486 (cell killing)” value in assay [4] came to 127 nM.

B8: 119p94P1B5 (designed binder)
chain: EPPTQKPKKIVNAKKDVVNTKMFEELKSRLDTLAQEVALLKEQQALQTVCLKGTKVHMKCFLAFTQTKTFHEASEDCISRGGTLSTPQTGSENDALYEYLRQSVGNEAEIWLGLNGWLEGVGWVDMTGARIAYKNWARHINEQPDGGWPFSNENCAVLSGAANGKWFDKRCRDQLPYICQFGIV
notes: ATRIMER from pANA19
Turning to B8, in assay [3], the Kd is 1.11 nM, the koff was determined as 0.000406 s⁻¹ and the kon was found to be 360000 M⁻¹ s⁻¹. Moreover, the “ED50 (nM) ST486 (cell killing)” value in assay [4] was found to be 6.6 nM.

B9: 119p94P1G7 (designed binder)
chain: EPPTQKPKKIVNAKKDVVNTKMFEELKSRLDTLAQEVALLKEQQALQTVCLKGTKVHMKCFLAFTQTKTFHEASEDCISRGGTLSTPQTGSENDALYEYLRQSVGNEAEIWLGLNGWLEGVGWVDMTGARIAYKNWGWSARVQPDGGWPFSNENCAVLSGAANGKWFDKRCRDQLPYICQFGIV
notes: ATRIMER from pANA19
As to B9, in assay [3], the Kd stood at 2.41 nM, the koff was 0.0007 s⁻¹ and the kon is 349000 M⁻¹ s⁻¹. In addition, the “ED50 (nM) ST486 (cell killing)” value in assay [4] came to 25.5 nM.

B10: 142p62P1A2 (designed binder)
chain: EPPTQKPKKIVNAKKDVVNTKMFEELKSRLDTLAQEVALLKEQQALQTVCLKGTKVHMKCFLAFTQTKTFHEASEDCISRGGTLSTPQTGSENDALYEYLRQSVGNEAEIWLGLNGWLEGSGWVDMTGARIAYKNWGDQRLAQPDGGVQWRWENCAVLSGAANGKWFDKRCRDQLPYICQFGIV
For B10, in assay [5], the “EC50 Colo205 (cell killing)” value was 0.39 nM and the “EC50 ST486 (cell killing)” value was determined as 0.3 nM.

B11: 65p114P1B2 (designed binder)
chain: EPPTQKPKKIVNAKKDVVNTKMFEELKSRLDTLAQEVALLKEQQALQTVCLKGTKVHMKCFLAFTQTKTFHEASEDCISRGGTLSTPQTGSENDALYEYLRQSVGNEAEIWLGLNGWLEGSGWVDMTGARIAYKNWFHDRFNQPDGGVQWRWENCAVLSGAANGKWFDKRCRDQLPYICQFGIV
In the case of B11, in assay [5], the “EC50 Colo205 (cell killing)” value is 0.18 nM and the “EC50 ST486 (cell killing)” value was found to be 0.09 nM.

B12: 142p72P1C9 (designed binder)
chain: EPPTQKPKKIVNAKKDVVNTKMFEELKSRLDTLAQEVALLKEQQALQTVCLKGTKVHMKCFLAFTQTKTFHEASEDCISRGGTLSTPQTGSENDALYEYLRQSVGNEAEIWLGLNGWLEGSGWVDMTGARIAYKNWGDPRWSQPDGGVQWRWENCAVLSGAANGKWFDKRCRDQLPYICQFGIV
In the case of B12, in assay [5], the “EC50 Colo205 (cell killing)” value was determined as 0.18 nM and the “EC50 ST486 (cell killing)” value worked out at 0.03 nM.

B13: 142p62P1G2 (designed binder)
chain: EPPTQKPKKIVNAKKDVVNTKMFEELKSRLDTLAQEVALLKEQQALQTVCLKGTKVHMKCFLAFTQTKTFHEASEDCISRGGTLSTPQTGSENDALYEYLRQSVGNEAEIWLGLNGWLEGSGWVDMTGARIAYKNWADERFLQPDGGVQWRWENCAVLSGAANGKWFDKRCRDQLPYICQFGIV
B13: in assay [5], the “EC50 Colo205 (cell killing)” value was determined as 0.32 nM and the “EC50 ST486 (cell killing)” value was found to be 0.2 nM.

B14: 65p114P1A3 (designed binder)
chain: EPPTQKPKKIVNAKKDVVNTKMFEELKSRLDTLAQEVALLKEQQALQTVCLKGTKVHMKCFLAFTQTKTFHEASEDCISRGGTLSTPQTGSENDALYEYLRQSVGNEAEIWLGLNGWLEGSGWVDMTGARIAYKNWADPKWSQPDGGVQWRWENCAVLSGAANGKWFDKRCRDQLPYICQFGIV
With B14, in assay [5], the “EC50 Colo205 (cell killing)” value was 0.11 nM and the “EC50 ST486 (cell killing)” value stood at 0.05 nM.
